Test results published in patent US20240270846A1 (published 2024).
Positions count from the first letter of the chain named.

B1: CE115HA000 H chain altered form H35Y (antibody, human IgG1, kappa, L234A L235A, N297A, name in Kabat numbering)
heavy: QVQLVESGGGVVQPGRSLRLSCAASGFTFSNAWMYWVRQAPGKGLEWVAQIKAKSNNYATYYAESVKGRFTISRDDSKNSLYLQMNSLKTEDTAVYYCRYVHYGAYYGVDAWGQGTTVTVSSASTKGPSVFPLAPSSKSTSGGTAALGCLVKDYFPEPVTVSWNSGALTSGVHTFPAVLQSSGLYSLSSVVTVPSSSLGTQTYICNVNHKPSNTKVDKKVEPKSCDKTHTCPPCPAPEAAGGPSVFLFPPKPKDTLMISRTPEVTCVVVDVSHEDPEVKFNWYVDGVEVHNAKTKPREEQYASTYRVVSVLTVLHQDWLNGKEYKCKVSNKALPAPIEKTISKAKGQPREPQVYTLPPSRCELTKNQVSLSCAVKGFYPSDIAVEWESNGQPENNYKTTPPVLDSDGSFFLVSKLTVDKSRWQQGNVFSCSVMHEALHNHYTQKSLSLSPDYKDDDDK
chain: EPKSSDKTHTCPPCPAPELLGGPSVFLFPPKPKDTLMISRTPEVTCVVVDVSHEDPEVKFNWYVDGVEVHNAKTKPREEQYNSTYRVVSVLTVLHQDWLNGKEYKCKVSNKALPAPIEKTISKAKGQPREPQVCTLPPSRDELTKNQVSLWCLVKGFYPSDIAVEWESNGQPENNYKTTPPVLDSDGSFFLYSKLTVDKSRWQQGNVFSCSVMHEALHNRYTQKSLSLSP
light: DIVMTQSPLSLPVTPGEPASISCRSSQSLVHSNRNTYLHWYQQKPGQAPRLLIYKVSNRFSGVPDRFSGSGSGTDFTLKISRVEAEDVGVYYCGQGTQVPYTFGQGTKLEIKRTVAAPSVFIFPPSDEQLKSGTASVVCLLNNFYPREAKVQWKVDNALQSGNSQESVTEQDSKDSTYSLSSTLTLSKADYEKHKVYACEVTHQGLSSPVTKSFNRGEC
notes: one-arm antibody
B2: CE115HA000 H chain altered form N31R (antibody, human IgG1, kappa, L234A L235A, N297A, name in Kabat numbering)
heavy: B1 heavy with N31R, Y35H
chain: B1 chain
light: B1 light
notes: one-arm antibody
B3: CE115HA000 H chain altered form K52D (antibody, human IgG1, kappa, L234A L235A, N297A, name in Kabat numbering)
heavy: B1 heavy with Y35H, K52D
chain: B1 chain
light: B1 light
notes: one-arm antibody
B4: CE115HA000 H chain altered form K52bN (antibody, human IgG1, kappa, L234A L235A, N297A, name in Kabat numbering)
heavy: B1 heavy with Y35H, K54N
chain: B1 chain
light: B1 light
notes: one-arm antibody
B5: CE115HA000 H chain altered form K52bA (antibody, human IgG1, kappa, L234A L235A, N297A, name in Kabat numbering)
heavy: B1 heavy with Y35H, K54A
chain: B1 chain
light: B1 light
notes: one-arm antibody
B6: CE115HA000 H chain altered form K52bQ (antibody, human IgG1, kappa, L234A L235A, N297A, name in Kabat numbering)
heavy: B1 heavy with Y35H, K54Q
chain: B1 chain
light: B1 light
notes: one-arm antibody
B7: CE115HA000 H chain altered form N31Q (antibody, human IgG1, kappa, L234A L235A, N297A, name in Kabat numbering)
heavy: B1 heavy with N31Q, Y35H
chain: B1 chain
light: B1 light
notes: one-arm antibody
B8: CE115HA000 H chain altered form N31D (antibody, human IgG1, kappa, L234A L235A, N297A, name in Kabat numbering)
heavy: B1 heavy with N31D, Y35H
chain: B1 chain
light: B1 light
notes: one-arm antibody
B9: CE115HA000 H chain altered form K52E (antibody, human IgG1, kappa, L234A L235A, N297A, name in Kabat numbering)
heavy: B1 heavy with Y35H, K52E
chain: B1 chain
light: B1 light
notes: one-arm antibody
B10: CE115HA000 H chain altered form N31F (antibody, human IgG1, kappa, L234A L235A, N297A, name in Kabat numbering)
heavy: B1 heavy with N31F, Y35H
chain: B1 chain
light: B1 light
notes: one-arm antibody
B11: CE115HA000 H chain altered form K52bY (antibody, human IgG1, kappa, L234A L235A, N297A, name in Kabat numbering)
heavy: B1 heavy with Y35H, K54Y
chain: B1 chain
light: B1 light
notes: one-arm antibody
B12: CE115HA000 H chain altered form K52W (antibody, human IgG1, kappa, L234A L235A, N297A, name in Kabat numbering)
heavy: B1 heavy with Y35H, K52W
chain: B1 chain
light: B1 light
notes: one-arm antibody
B13: CE115HA000 H chain altered form K52bS (antibody, human IgG1, kappa, L234A L235A, N297A, name in Kabat numbering)
heavy: B1 heavy with Y35H, K54S
chain: B1 chain
light: B1 light
notes: one-arm antibody
B14: CE115HA000 H chain altered form K43E (antibody, human IgG1, kappa, L234A L235A, N297A, name in Kabat numbering)
heavy: B1 heavy with Y35H, K43E
chain: B1 chain
light: B1 light
notes: one-arm antibody
B15: CE115HA000 H chain altered form K52N (antibody, human IgG1, kappa, L234A L235A, N297A, name in Kabat numbering)
heavy: B1 heavy with Y35H, K52N
chain: B1 chain
light: B1 light
notes: one-arm antibody
B16: CE115HA000 H chain altered form K52R (antibody, human IgG1, kappa, L234A L235A, N297A, name in Kabat numbering)
heavy: B1 heavy with Y35H, K52R
chain: B1 chain
light: B1 light
notes: one-arm antibody
B17: CE115HA000 H chain altered form N31K (antibody, human IgG1, kappa, L234A L235A, N297A, name in Kabat numbering)
heavy: B1 heavy with N31K, Y35H
chain: B1 chain
light: B1 light
notes: one-arm antibody
B18: CE115HA000 H chain altered form I51E (antibody, human IgG1, kappa, L234A L235A, N297A, name in Kabat numbering)
heavy: B1 heavy with Y35H, I51E
chain: B1 chain
light: B1 light
notes: one-arm antibody
B19: CE115HA000 H chain altered form N31A (antibody, human IgG1, kappa, L234A L235A, N297A, name in Kabat numbering)
heavy: B1 heavy with N31A, Y35H
chain: B1 chain
light: B1 light
notes: one-arm antibody
B20: CE115HA000 H chain altered form N31H (antibody, human IgG1, kappa, L234A L235A, N297A, name in Kabat numbering)
heavy: B1 heavy with N31H, Y35H
chain: B1 chain
light: B1 light
notes: one-arm antibody
B21: CE115HA000 H chain altered form N31G (antibody, human IgG1, kappa, L234A L235A, N297A, name in Kabat numbering)
heavy: B1 heavy with N31G, Y35H
chain: B1 chain
light: B1 light
notes: one-arm antibody
B22: CE115HA000 H chain altered form K52bR (antibody, human IgG1, kappa, L234A L235A, N297A, name in Kabat numbering)
heavy: B1 heavy with Y35H, K54R
chain: B1 chain
light: B1 light
notes: one-arm antibody
B23: CE115HA000 H chain altered form K52bL (antibody, human IgG1, kappa, L234A L235A, N297A, name in Kabat numbering)
heavy: B1 heavy with Y35H, K54L
chain: B1 chain
light: B1 light
notes: one-arm antibody
B24: CE115HA000 H chain altered form K52Y (antibody, human IgG1, kappa, L234A L235A, N297A, name in Kabat numbering)
heavy: B1 heavy with Y35H, K52Y
chain: B1 chain
light: B1 light
notes: one-arm antibody
B25: CE115HA000 H chain altered form K43Q (antibody, human IgG1, kappa, L234A L235A, N297A, name in Kabat numbering)
heavy: B1 heavy with Y35H, K43Q
chain: B1 chain
light: B1 light
notes: one-arm antibody
B26: CE115HA000 H chain altered form K52F (antibody, human IgG1, kappa, L234A L235A, N297A, name in Kabat numbering)
heavy: B1 heavy with Y35H, K52F
chain: B1 chain
light: B1 light
notes: one-arm antibody
B27: CE115HA000 H chain altered form K52S (antibody, human IgG1, kappa, L234A L235A, N297A, name in Kabat numbering)
heavy: B1 heavy with Y35H, K52S
chain: B1 chain
light: B1 light
notes: one-arm antibody
B28: CE115HA000 H chain altered form K52H (antibody, human IgG1, kappa, L234A L235A, N297A, name in Kabat numbering)
heavy: B1 heavy with Y35H, K52H
chain: B1 chain
light: B1 light
notes: one-arm antibody
B29: CE115HA000 H chain altered form N31I (antibody, human IgG1, kappa, L234A L235A, N297A, name in Kabat numbering)
heavy: B1 heavy with N31I, Y35H
chain: B1 chain
light: B1 light
notes: one-arm antibody
B30: CE115HA000 H chain altered form K52I (antibody, human IgG1, kappa, L234A L235A, N297A, name in Kabat numbering)
heavy: B1 heavy with Y35H, K52I
chain: B1 chain
light: B1 light
notes: one-arm antibody
B31: CE115HA000 H chain altered form K52bD (antibody, human IgG1, kappa, L234A L235A, N297A, name in Kabat numbering)
heavy: B1 heavy with Y35H, K54D
chain: B1 chain
light: B1 light
notes: one-arm antibody
B32: CE115HA000 H chain altered form I51D (antibody, human IgG1, kappa, L234A L235A, N297A, name in Kabat numbering)
heavy: B1 heavy with Y35H, I51D
chain: B1 chain
light: B1 light
notes: one-arm antibody

The binders below were run against T1, CD3 epsilon homodimer protein (UniProt P07766 23-126) (assay: SPR Biacore T200, CD3 epsilon homodimer on chip, antibody as analyte;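 also: homodimer amine-coupled to a CM4 sensor chip, run at 25 °C in HBS-EP+ buffer, with kinetic parameters derived in Biacore T200 Evaluation Software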).
T1 construct: also called CD3 (CD3 epsilon)
T1 sequence (P07766 23-126): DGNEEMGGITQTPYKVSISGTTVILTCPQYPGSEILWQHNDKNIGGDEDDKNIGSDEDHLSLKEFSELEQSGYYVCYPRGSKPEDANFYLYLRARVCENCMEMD

In order of falling “KD ratio (KD of CE115HA000 / KD of altered form)” value:
1. B1  119000
2. B3  166
3. B27  92.1
4. B9  19.4
5. B24  6.47
6. B32  6.37
7. B26  4.04
8. B30  3.54
9. B15  3.29
10. B12  2.69
11. B28  2.65
12. B21  1.37
13. B10  1.24
14. B8  1.14
15. B2  0.98
16. B17  0.97
17. B19  0.96
18. B20  0.96
19. B7  0.94
20. B22  0.91
21. B25  0.89
22. B14  0.88
23. B18  0.84
24. B16  0.8
25. B6  0.62
26. B29  0.62
27. B11  0.61
28. B23  0.61
29. B5  0.58
30. B13  0.58
31. B31  0.56
32. B4  0.43
